# From publication doi:10.1101/2020.04.16.045419 (bioRxiv, 2020)
# B1: Sb#64 (VHH)
# VHH: QVQLVESGGGSVQAGGSLRLSCAASGEIESIFYLGWFRQAPGKEREGVAALYTYVGQTYYADSVKGRFTVSLDNAKNTVYLQMNSLKPEDTALYYCAAASYGAAHPLSIMRYYYWGQGTQVTVS
# B2: Sb#52 (VHH)
# VHH: QVQLVESGGGSVQAGGSLRLSCAASGNIQRIYYLGWFRQAPGKEREGVAALMTYTGHTYYADSVKGRFTVSLDNAKNTVYLQMNSLKPEDTALYYCAAAYVGAENPLPYSMYGYWGQGTQVTVS
# B3: Sb#66 (VHH)
# VHH: QVQLVESGGGSVQAGGSLRLSCAASGSIQAITYLGWFRQAPGKEREGVAALVTWNGQTYYADSVKGRFTVSLDNAKNTVYLQMNSLKPEDTALYYCAAADWGYDWPLWDEWYWYWGQGTQVTVS
# B4: Sb#53 (VHH)
# VHH: QVQLVESGGGSVQAGGSLRLSCAASGQISHIKYLGWFRQAPGKEREGVAALITRWGQTYYADSVKGRFTVSLDNAKNTVYLQMNSLKPEDTALYYCAAADYGASDPLWFIHYLYWGQGTQVTVS
# B5: Sb#56 (VHH)
# VHH: QVQLVESGGGSVQAGGSLRLSCAASGNISQIHYLGWFRQAPGKEREGVAALNTDYGYTYYADSVKGRFTVSLDNAKNTVYLQMNSLKPEDTALYYCAAAYYFGDDIPLWWEAYSYWGQGTQVTVS
# B6: Sb#69 (VHH)
# VHH: QVQLVESGGGSVQAGGSLRLSCAASGSISSITYLGWFRQAPGKEREGVAALNTFNGTTYYADSVKGRFTVSLDNAKNTVYLQMNSLKPEDTALYYCAAATWGYSWPLIAEYNWYWGQGTQVTVS
# B7: Sb#71 (VHH)
# VHH: QVQLVESGGGSVQAGGSLRLSCAASGSISSITYLGWFRQAPGKEREGVAALKTQAGFTYYADSVKGRFTVSLDNAKNTVYLQMNSLKPEDTALYYCAAANWGYSWPLYEADDWYWGQGTQVTVS
# B8: Sb#67 (VHH)
# VHH: QVQLVESGGGSVQAGGSLRLSCAASGSISSITYLGWFRQAPGKEREGVAALVTYSGNTYYADSVKGRFTVSLDNAKNTVYLQMNSLKPEDTALYYCAAATWGHSWPLYNDEYWYWGQGSQVTVS
# B9: Sb#51 (VHH)
# VHH: QVQLVESGGGLVQAGGSLRLSCAASGFPVYQGEMHWYRQAPGKEREWVAAIRSTGVQTWYADSVKGRFTISRDNAKNTVYLQMNSLKPEDTAVYYCRVWVGTHYFGQGTQVTVS
# B10: Sb#55 (VHH)
# VHH: QVQLVESGGGSVQAGGSLRLSCAASGKIWTIKYLGWFRQAPGKEREGVAALMTRWGYTYYADSVKGRFTVSLDNAKNTVYLQMNSLKPEDTALYYCAAANYGSNFPLAEEDYWYWGQGTQVTVS
# B11: Sb#59 (VHH)
# VHH: QVQLVESGGGSVQAGGSLRLSCAASGNIESIYYLGWFRQAPGKEREGVAALWTGDGETYYADSVKGRFTVSLDNAKNTVYLQMNSLKPEDTALYYCAAAAWGNSAPLTTYRYYYWGQGTQVTVS
# B12: Sb#62 (VHH)
# VHH: QVQLVESGGGSVQAGGSLRLSCAASGTIADIKYLGWFRQAPGKEREGVAALMTRWGSTYYADSVKGRFTVSLDNAKNTVYLQMNSLKPEDTALYYCAAANYGANYPLYSQQYSYWGQGTQVTVS
# B13: Sb#65 (VHH)
# VHH: QVQLVESGGGSVQAGGSLRLSCAASGTIAHIKYLGWFRQAPGKEREGVAALMTKWGQTYYADSVKGRFTVSLDNAKNTVYLQMNSLKPEDTALYYCAAASYGANFPLKASDYSYWGQGTQVTVS
# B14: Sb#63 (VHH)
# VHH: QVQLVESGGGSVQAGGSLRLSCAASGSISSIKYLGWFRQAPGKEREGVAALMTRWGMTYYADSVKGRFTVSLDNAKNTVYLQMNSLKPEDTALYYCAAANYGANEPLQYTHYNYWGQGTQVTVS
# B15: Sb#50 (VHH)
# VHH: QVQLVESGGGSVQAGGSLRLSCAASGYIDKIVYLGWFRQAPGKEREGVAALYTLSGHTYYADSVKGRFTVSLDNAKNTVYLQMNSLKPEDTALYYCAAATEGHAHALYRLHYYWGQGTQVTVS
# B16: Sb#58 (VHH)
# VHH: QVQLVESGGGSVQAGGSLRLSCAASGNISTIEYLGWFRQAPGKEREGVAALYTWHGQTYYADSVKGRFTVSLDNAKNTVYLQMNSLKPEDTALYYCAAARWGRHMPLSATEYSYWGQGTQVTVS
# Biological target: SARS-CoV-2 RBD construct consisting of residues Pro330-Gly526 fused to Venus YFP (RBD-vYFP) (SARS-CoV-2, UniProt P0DTC2)
row,Binder,binding result
1,B1,binds
2,B2,binds
3,B3,binds
4,B4,binds
5,B5,binds
6,B6,binds
7,B7,binds
8,B8,binds
9,B9,binds
10,B10,binds
11,B11,binds
12,B12,binds
13,B13,binds
14,B14,binds
15,B15,binds
16,B16,binds
